Measurements: the supplement of paper PMC10567573

B1: PTPRD (parent)
chain: ITWFKDFLPVDTSNNNGRIKQLRS

Variants of: B1
Test: protein stability index of a GFP-peptide fusion (GPS, HEK-293T) (PSI 1-6); higher = more stable
Details: c terminus: a fixed tail appended
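Also: lentivirally expressed fusions sorted by FACS into six bins by GFP to DsRed ratio, PSI derived from sequencing read proportions per bin multiplied by bin number.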

Protein stability index, by site and new letter:
F7: W 1.82; I 2.26; E 2.45; C 2.31; G 2.25; R 1.8; N 2.47; L 2.41; M 2.46; V 1.85; K 1.88; D 2.74; H 2.76; S 2.36; P 2.32; A 2.45; Y 1.99; T 2.38; Q 2.05
T2: N 2; G 2.78; V 1.86; E 2.33; M 1.96; K 2.03; H 2.15; C 2.09; S 2.12; I 2.18; Q 1.84; F 2.41; L 1.41; Y 1.68; D 1.53; W 2.21; A 2.34; P 3; R 1.59
W3: C 2.82; H 3.33; Y 2.95; S 3.62; V 2.46; D 3.43; R 3.1; M 2.95; G 3.03; I 1.93; Q 3.13; F 2.25; A 3.76; T 3.3; K 2.85; N 3.23; P 3.75; E 4.07; L 2.31
D6: I 3.07; P 1.85; V 2.3; E 2.36; Y 2.85; N 1.94; S 2.27; A 1.78; M 2.14; Q 1.4; C 2.26; K 1.85; L 3.08; H 1.9; T 1.6; G 2.27; W 2.26; R 2.37; F 3.07
K5: F 1.97; L 2.08; E 2.91; W 1.66; D 2.44; C 2.25; Y 2.75; M 2.43; P 2.24; S 2.37; G 2.17; T 2.1; H 2.06; V 1.51; A 1.98; Q 2.07; N 2.12; R 1.79; I 2.19
I1: M 2.62; K 2.99; N 3.69; Q 2.71; R 3.03; V 2.15; T 3.02; L 2.33; Y 1.92; P 3.97; S 3.17; W 2.17; H 3.47
L8: G 2; W 1.76; F 1.88; R 2.41; M 1.49; S 2.04; Y 1.64; H 1.93; E 1.85; P 1.96; T 2.23; I 2.32; N 2.1; A 2.14; K 2.28; D 2.31; C 1.81; Q 1.78; V 1.77
F4: S 1.57; L 1.87; A 2.17; H 2.27; G 3.35; P 2.74; Y 1.95; C 1.94; W 2.02; T 2.03; I 1.62; V 1.87; D 3.25; E 3.97; N 2.57; Q 2.21; M 1.59; K 2.37; R 2.49
V10: A 2.03; C 2.05
P9: K 1.96; C 1.58; S 2.13; A 2; D 2.09; T 1.42; W 1.75; E 2; V 2.04; N 2.28; Q 2.12; L 2.84; M 2.31; R 1.43; G 1.72; F 1.93; Y 1.66; H 1.45; I 2.02
